From paper PMC9636267 (Communications Biology, 2022)

Target: T1, HCoV-229E S ectodomain (17–1115 aa), 229E S trimer (human coronavirus 229E, UniProt P15423 17-1115)
T1 sequence (looked up): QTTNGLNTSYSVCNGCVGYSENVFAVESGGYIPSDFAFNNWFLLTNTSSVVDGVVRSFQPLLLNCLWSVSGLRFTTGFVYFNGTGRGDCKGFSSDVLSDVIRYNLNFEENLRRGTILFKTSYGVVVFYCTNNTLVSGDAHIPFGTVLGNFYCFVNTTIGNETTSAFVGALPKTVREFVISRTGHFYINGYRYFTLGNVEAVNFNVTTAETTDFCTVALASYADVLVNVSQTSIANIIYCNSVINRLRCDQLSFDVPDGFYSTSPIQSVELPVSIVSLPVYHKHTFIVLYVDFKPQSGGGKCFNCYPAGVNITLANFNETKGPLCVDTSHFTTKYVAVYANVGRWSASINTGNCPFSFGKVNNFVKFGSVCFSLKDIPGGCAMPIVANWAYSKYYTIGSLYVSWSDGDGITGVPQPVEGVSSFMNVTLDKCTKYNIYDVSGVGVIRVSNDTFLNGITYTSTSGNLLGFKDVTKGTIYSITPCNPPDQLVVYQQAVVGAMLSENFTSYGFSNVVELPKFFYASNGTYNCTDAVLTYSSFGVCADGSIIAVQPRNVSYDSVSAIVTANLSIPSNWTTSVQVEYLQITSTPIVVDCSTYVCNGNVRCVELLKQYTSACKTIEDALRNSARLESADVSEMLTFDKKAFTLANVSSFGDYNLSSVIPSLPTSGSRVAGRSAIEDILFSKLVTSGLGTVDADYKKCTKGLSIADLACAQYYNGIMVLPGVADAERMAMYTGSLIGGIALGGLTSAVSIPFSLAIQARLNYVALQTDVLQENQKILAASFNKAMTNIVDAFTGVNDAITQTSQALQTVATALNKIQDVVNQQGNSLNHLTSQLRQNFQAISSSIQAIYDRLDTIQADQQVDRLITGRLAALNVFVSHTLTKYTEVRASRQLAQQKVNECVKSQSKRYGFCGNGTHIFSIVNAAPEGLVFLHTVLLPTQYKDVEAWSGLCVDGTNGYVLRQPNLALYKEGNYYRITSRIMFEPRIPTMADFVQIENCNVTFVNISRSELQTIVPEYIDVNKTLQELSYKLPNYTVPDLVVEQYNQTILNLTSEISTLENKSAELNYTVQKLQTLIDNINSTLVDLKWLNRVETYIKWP
Assay: SPR
Conditions: both partners purified

B1: human aminopeptidase N (hAPN), soluble ectodomain (66–967 aa) (receptor, UniProt P15144 66-967, looked up)
chain: DQSKAWNRYRLPNTLKPDSYRVTLRPYLTPNDRGLYVFKGSSTVRFTCKEATDVIIIHSKKLNYTLSQGHRVVLRGVGGSQPPDIDKTELVEPTEYLVVHLKGSLVKDSQYEMDSEFEGELADDLAGFYRSEYMEGNVRKVVATTQMQAADARKSFPCFDEPAMKAEFNITLIHPKDLTALSNMLPKGPSTPLPEDPNWNVTEFHTTPKMSTYLLAFIVSEFDYVEKQASNGVLIRIWARPSAIAAGHGDYALNVTGPILNFFAGHYDTPYPLPKSDQIGLPDFNAGAMENWGLVTYRENSLLFDPLSSSSSNKERVVTVIAHELAHQWFGNLVTIEWWNDLWLNEGFASYVEYLGADYAEPTWNLKDLMVLNDVYRVMAVDALASSHPLSTPASEINTPAQISELFDAISYSKGASVLRMLSSFLSEDVFKQGLASYLHTFAYQNTIYLNLWDHLQEAVNNRSIQLPTTVRDIMNRWTLQMGFPVITVDTSTGTLSQEHFLLDPDSNVTRPSEFNYVWIVPITSIRDGRQQQDYWLIDVRAQNDLFSTSGNEWVLLNLNVTGYYRVNYDEENWRKIQTQLQRDHSAIPVINRAQIINDAFNLASAHKVPVTLALNNTLFLIEERQYMPWEAALSSLSYFKLMFDRSEVYGPMKNYLKKQVTPLFIHFRNNTNNWREIPENLMDQYSEVNAISTACSNGVPECEEMVSGLFKQWMENPNNNPIHPNLRSTVYCNAIAQGGEEEWDFAWEQFRNATLVNEADKLRAALACSKELWILNRYLSYTLNPDLIRKQDATSTIISITNNVIGQGLVWDFVQSNWKKLFNDYGGGSFSFSNLIQAVTRRFSTEYELQQLEQFKKDNEETGFGSGTRALEQALEKTKANIKWVKENKEVVLQWFTENSK
notes: also called recombinant hAPN protein
binding result: binds
